Data as given in PMC5734687 (PLoS ONE, 2017).
One block for each molecule: values may come before it. No end group written: not given here.

Experiments:
[1] = target: HER2 fragment V529-P625, C-terminal GSH6 tag (UniProt P04626); experiment: SPR; Biacore T200; biotinylated HER2 fragment V529-P625 immobilised on streptavidin chip (SA); scFv 0.2-5 μM in 50 mM sodium phosphate pH 7.4; triplicate
[2] = target: T1, full length human ITGA4 (antigen CD49, α4 subunit of VLA-4 receptor) (Homo sapiens, UniProt P13612); experiment: far-Western, overlay or dot blot; dot blot: 80 ng full length ITGA4 spotted on Immobilon-P; 6 μg/mL scFv in TBS, 1 h, room temperature; detected with HRP-labelled anti-His tag antibody; settings: both partners purified
T1 construct: integrin alpha-4 (ITGA4, CD49, α4 subunit of VLA-4), human, full length; also called ITG4A; ITGA4 full length

[3] = target: T2, synthetic peptide DATAEEEEDFGEEA corresponding to residues 427-440 of human β-tubulin (Homo sapiens); experiment: SPR; Biacore T200; C-terminally biotinylated β-tubulin peptide immobilised on streptavidin chip (SA); scFv 0.375-12 μM in 50 mM sodium phosphate pH 7.4; settings: both partners purified
T2 construct: also called β-tubulin peptide; source: synthetic peptide (Fmoc chemistry, ABI433A)
T2 chain: DATAEEEEDFGEEA-biotin

- Kd [1]: 147 nM
Molecule: natalizumab framework-trastuzumab CDRs hybrid scFv, expressed with CyDisCo

- binding result [2]: binds
B1: natalizumab scFv (IgG4 humanized), expressed without CyDisCo (scFv, V domains shown)
VH: QVQLVQSGAEVKKPGASVKVSCKASGFNIKDTYIHWVRQAPGQRLEWMGRIDPANGYTKYDPKFQGRVTITADTSASTAYMELSSLRSEDEAVYYCAREGYYGNYGVYAMDYWGQGTLVTVSS
VL: DIQMTQSPSSLSASVGDRVTITCKTSQDINKYMAWYQQTPGKAPRLLIHYTSALQPGIPSRFSGSGSGRDYTFTISSLQPEDIATYYCLQYDNLWTFGQGTKVEIK
notes: VL of natalizumab, as the VL of m5; linker, printed as (Gly4Ser)3; VH of natalizumab, as the VH of m5; expected mass 27755 Da); also called natalizumab - CyDisCo; Tysabri scFv; source: E. coli BW25113 cytoplasm, without CyDisCo (control vector pAG82), purified (IMAC, desalted); not shown: GSH6, C-terminal, kept

- binding result [2]: binds
B2: natalizumab scFv (IgG4 humanized), expressed with CyDisCo (scFv, V domains shown)
VH: B1 VH
VL: B1 VL
notes: VL of natalizumab; linker, printed as (Gly4Ser)3; VH of natalizumab; expected mass 27751 Da); also called natalizumab-natalizumab; Tysabri scFv; source: E. coli BW25113 cytoplasm, co-expressed with CyDisCo (Erv1p and PDI), purified (IMAC, desalted); not shown: GSH6, C-terminal, kept

- Kd [3]: 3560 nM
B3: IgA1 scFv (human), expressed with CyDisCo (scFv, V domains shown)
VH: EVQLVESGGGLVQPGGSLKLSCAASGFTLSGSNVHWVRQASGKGLEWVGRIKRNAESDATAYAASMRGRLTISRDDSKNTAFLQMNSLKSDDTAMYYCVIRGDVYNRQWGQGTLVTVSS
VL: DIVMTQSPLSLSVTPGEPASISCRSSQSLLRRDGHNDLEWYLQKPGQSPQPLIYLGSTRASGVPDRFSGSGSGTDFTLKIIRVEAEDAGTYYCMQNKQTPLTFGQGTRLEIK
notes: VL of the anti-beta-tubulin IgA1; linker, printed as (Gly4Ser)3; VH of the anti-beta-tubulin IgA1; Expected mass 27342 Da with disulfide bonds; also called IgA1-IgA1; parental scFv IgA1; source: E. coli BW25113 cytoplasm, co-expressed with CyDisCo (Erv1p and PDI), purified (IMAC, desalted)
